T1: Human heat shock transcription factor 1 (Hsf1), wild type (human), Q00613
T1 chain: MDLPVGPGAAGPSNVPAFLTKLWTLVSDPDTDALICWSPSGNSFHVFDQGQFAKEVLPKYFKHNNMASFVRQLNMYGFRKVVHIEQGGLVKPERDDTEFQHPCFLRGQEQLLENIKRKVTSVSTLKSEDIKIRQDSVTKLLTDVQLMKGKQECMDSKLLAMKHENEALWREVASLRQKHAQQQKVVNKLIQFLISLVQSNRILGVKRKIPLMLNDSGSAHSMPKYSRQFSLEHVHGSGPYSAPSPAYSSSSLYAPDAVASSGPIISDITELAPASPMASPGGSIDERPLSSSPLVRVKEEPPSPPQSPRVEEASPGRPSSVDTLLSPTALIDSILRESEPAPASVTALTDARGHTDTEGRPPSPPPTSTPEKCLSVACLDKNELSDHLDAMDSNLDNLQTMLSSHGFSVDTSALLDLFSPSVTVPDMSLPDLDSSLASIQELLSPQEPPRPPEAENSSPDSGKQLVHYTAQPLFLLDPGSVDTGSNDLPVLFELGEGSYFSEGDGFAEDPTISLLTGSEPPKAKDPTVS

T2: Hsf1 wild type expressed from pIRES‐HSF1_hrGFP in cells (human), Q00613
T2 chain: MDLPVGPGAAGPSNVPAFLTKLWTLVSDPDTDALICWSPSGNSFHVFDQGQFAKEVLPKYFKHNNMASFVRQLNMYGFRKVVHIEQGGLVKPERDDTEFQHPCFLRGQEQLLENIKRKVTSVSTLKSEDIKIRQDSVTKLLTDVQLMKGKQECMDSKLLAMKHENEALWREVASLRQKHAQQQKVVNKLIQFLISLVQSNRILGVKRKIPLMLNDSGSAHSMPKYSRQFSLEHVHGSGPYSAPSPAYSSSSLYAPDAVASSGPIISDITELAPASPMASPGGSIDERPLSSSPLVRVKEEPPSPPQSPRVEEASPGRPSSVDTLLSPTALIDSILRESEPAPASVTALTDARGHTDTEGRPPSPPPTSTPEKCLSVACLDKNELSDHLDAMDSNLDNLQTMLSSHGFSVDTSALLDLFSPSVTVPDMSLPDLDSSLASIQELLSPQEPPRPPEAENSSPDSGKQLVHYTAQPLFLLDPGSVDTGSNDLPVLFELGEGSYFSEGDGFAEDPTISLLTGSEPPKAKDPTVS


Assays:
Details in all cases: remark: other sources report otherwise
[1] = target: T1, Human heat shock transcription factor 1 …; assay: SEC + native gel or EMSA; trimer-to-monomer ratio of freshly purified Hsf1 in the absence of heat shock, by gel filtration (Superdex 200) and BN-PAGE
[2] = target: T1, Human heat shock transcription factor 1 …; assay: native gel or EMSA; blue-native PAGE (8% gel, on ice) of purified Hsf1 wild type or variants, also after 10 min at 4–42°C (5 μM protein); Coomassie stain or immunoblot with Hsf1 antiserum
[3] = target: T2, Hsf1 wild type expressed from …; assay: native gel or EMSA; blue-native PAGE of lysates (15 μg total protein) of transfected HSF1−/− MEFs, immunoblot with Hsf1 antiserum

| stoichiometry N [1] | stoichiometry N [2] | stoichiometry N [3] | Binder |
| --- | --- | --- | --- |
| 3 | 3 |  | Human heat shock transcription factor 1 (Hsf1), wild type, Q00613 1-529 (natural protein) MDLPVGPGAAGPSNVPAFLTKLWTLVSDPDTDALICWSPSGNSFHVFDQGQFAKEVLPKYFKHNNMASFVRQLNMYGFRKVVHIEQGGLVKPERDDTEFQHPCFLRGQEQLLENIKRKVTSVSTLKSEDIKIRQDSVTKLLTDVQLMKGKQECMDSKLLAMKHENEALWREVASLRQKHAQQQKVVNKLIQFLISLVQSNRILGVKRKIPLMLNDSGSAHSMPKYSRQFSLEHVHGSGPYSAPSPAYSSSSLYAPDAVASSGPIISDITELAPASPMASPGGSIDERPLSSSPLVRVKEEPPSPPQSPRVEEASPGRPSSVDTLLSPTALIDSILRESEPAPASVTALTDARGHTDTEGRPPSPPPTSTPEKCLSVACLDKNELSDHLDAMDSNLDNLQTMLSSHGFSVDTSALLDLFSPSVTVPDMSLPDLDSSLASIQELLSPQEPPRPPEAENSSPDSGKQLVHYTAQPLFLLDPGSVDTGSNDLPVLFELGEGSYFSEGDGFAEDPTISLLTGSEPPKAKDPTVS |
|  |  | 3 | Hsf1 wild type expressed from pIRES‐HSF1_hrGFP in cells, Q00613 1-529 (natural protein) MDLPVGPGAAGPSNVPAFLTKLWTLVSDPDTDALICWSPSGNSFHVFDQGQFAKEVLPKYFKHNNMASFVRQLNMYGFRKVVHIEQGGLVKPERDDTEFQHPCFLRGQEQLLENIKRKVTSVSTLKSEDIKIRQDSVTKLLTDVQLMKGKQECMDSKLLAMKHENEALWREVASLRQKHAQQQKVVNKLIQFLISLVQSNRILGVKRKIPLMLNDSGSAHSMPKYSRQFSLEHVHGSGPYSAPSPAYSSSSLYAPDAVASSGPIISDITELAPASPMASPGGSIDERPLSSSPLVRVKEEPPSPPQSPRVEEASPGRPSSVDTLLSPTALIDSILRESEPAPASVTALTDARGHTDTEGRPPSPPPTSTPEKCLSVACLDKNELSDHLDAMDSNLDNLQTMLSSHGFSVDTSALLDLFSPSVTVPDMSLPDLDSSLASIQELLSPQEPPRPPEAENSSPDSGKQLVHYTAQPLFLLDPGSVDTGSNDLPVLFELGEGSYFSEGDGFAEDPTISLLTGSEPPKAKDPTVS |

Source: article PMC7360973
